Test: yeast display, Sf9 membrane polyspecificity reagent, FACS + sequencing; frameworks hold sequencing errors
Procedure, shortened: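 After 36–48 hours of galactose induction, yeast (Saccharomyces cerevisiae BJ5465) displaying a synthetic nanobody library were stained at 4 °C for 1 hour with 10% biotinylated, detergent-solubilized Sf9 membrane reagent. Streptavidin microbeads enriched the stained cells before FACS sorting into low and high (top ~1%) gates on anti-HA and streptavidin fluorescence. Each clone's polyreactivity label reflects its gate of origin.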

| Sequence | polyreactivity (PSR sort gate) |
| --- | --- |
| QVQLVESGGGLVQSGGSLRLSCAASGYIVRNAMGWYRQAPVKERELVAAITWSGGSTYYADSVKGRFTISRDNAKNTVYLQMNSLKPEDTAVYYCNARRNVRQTFGYEYWGQGTQVTVSS | high polyreactivity |
| QVQLVESGGGLVQAGGSLRLSCAASGFTFGRNAMGWYRQAHGKERELVASIDWSGGSTYYADSVKGRFTISRDNAKNTFYLQMNTLKPEDTAVYYCAVGPNSVGNRSYGFDYWGQGTQVTLSS | low polyreactivity |
| QVQLVESGGGLVQAGGSLRLSCAASGSTFFNNAMGWYRQAPGKERELVAAITGGGGRTYYADSVKGRFTISRDNAKNTVYLQMNSLKPEDTAVYYCAAVPRRSYGGYPYYYWGQGTQVTVSS | low polyreactivity |
| QVQLVESGGGLVQAGGSLRLSCAASGFTFKWSAMGWYRPAPGKETELVATITIGGRTNYADSVKGRFTISRDNAKYTVYLQMNSLKPEDTAVYYGATYFVGFRLSDYDYWGQGTQVTVSS | low polyreactivity |
| QVQLVESGGGLVQAGGSLRLSCAASGRSFSYAMGWYRQAPGKERELVAAISYGGGGTYYADSVKGRFTISRDNAKNTVYLQMNSLKPEDTAVYYCNARQYRPWYPPYGYDYWGQGTQVTVSS | low polyreactivity |
| QVQLVESGGGLVQAGGSLRLSCAASGRTFEYYAMGWYRQAPGKEREFVAAISRRGDSTYYADSVKGRFTISRDNAKNTVYLQMNSLKPEDTAVYYCAAKSYSARTKYYYWGQGTQVTVSS | high polyreactivity |
| QVQLVESGGGLVQAGGSLRLSCAASGSTFIFNAMGWYRQAPGKERELVAAISWRVGRTYYADSVKGRFTISRDNAKNTVYLQMNSLKPEDTAVYYCAAPKSSTGHYYSWGQGTQVTVSS | low polyreactivity |
| QVQLVESGGGLVQAGGSLRLSCAASGFTFPWYTMGWYRQAPGKERELVAAINSRGGSTYYADSVKGRFTISRDNAKNTVYLQMNSLKPEDTAVYYCATRSFGRMDYWGQGTQVTVSS | high polyreactivity |
| QVQLVESGGGLVQAGGSLRLSCAASGLTFYLYAMGWYRQAPGKERELVAAISSSGSSTYYADSVKGRFTISRDNAKHTVYLQMNSLKPEDTAVYYCAAVASRGWGRYGYWGQGTQVTVSS | high polyreactivity |
| QVQLVESGGGLVQAGGSLRLSCAASGSTFYRYAMGWYRQAPGKERELVAAITWSGGSTYYADSVKGRFTISRDNAKNTVYLQMNSLKPEDTAVYYCNAVARYYYKDQTIIHSPREDYWGQGTQVTVSS | low polyreactivity |
| QVQLVESGGGLVQAGGSLRLSCAASGTTISANAMGWYRQAPGKERELVAAIRWSDGRTYYADSVKGRFTISRDNAKNTVYLQMNSLKPEDTAVYYCNRVLSYHRHKLGMGYWGQGTQVTVSS | high polyreactivity |
| QVQLVESGGGLVQAGGSLRLSCAASGFIFYKNAMGWYRQAPGKERELVAAISRRGSSTYYADSVKGRFTISRDNAKNTVYLQMNSLKPEDTAVYYCAADSHIDHGKWAYDYWGQGTQVTVSS | high polyreactivity |
| QVQLVESGGGLVQAGGSLRLSCAAYGIIFWINSMGRYRPAPGKEREVVAAITSGGTTYYADSVKGRFTISRDNGKNTVYLQMNILKPEDTAVYYCAARVRGARDYYWGQGTQVTVSS | high polyreactivity |
| QVQLVESGGGLVQAGGSLRLSCAASGRTLKYNAMGWYRQAPGKERELVAAISYSGSSTYYADSVKWRFTISRDNAKNTVYLQMNSLKPEDNAVYYCNSARPTAAYDYWGQGTQVTVSS | low polyreactivity |
| QVQLVESGGGLVQAGGSLRLSCAASGGIFVSYAMGWYRQAPGKEWELVAAITSGGGTSYADSVKGRFTISRDNAKNTVYLQMNSLKPEDTAVYYCNADGYLAERFVIRLDEYRHYDYWGQGTQVTVSS | low polyreactivity |
| QVQLVESGGGLGQAGGSLRLSCAASGVSNAMGWYRQAPGKERELVAAISRSGGSTYYADSVKGRFTISRDNAKNTVYLQMNRLKPEDTAVYYCNARPYWIDGSGLFPYDYWGQGSQVTVSS | high polyreactivity |

| Sequence | polyreactivity (PSR sort gate) |
| --- | --- |
| QDQLVESGGGLVQAGGRLRLSCAASGSTFRRYAMGWYRQAPGTERDWVAAISGGGGSTYYADSVKGRFTISRDNAKNTVYLQMNSLKPEDTAVYYCNIPFPYYPDGPNGYDYWGQGTQVTVSS | low polyreactivity |
| QVQLQESGRRPGAAGGSPRMSCAASGNIFWVAVMGRYRQAPGKERELVASIGFGCTTYYADSVKCRFTISRDNAKNTVYLQMISLQPEDTAVYYCAAPHYDWGELDYWGQGTQVPVSS | low polyreactivity |
| QVQLVESGGGLVQAGGSLSLSCAASGRTFDDNAMGWYRQAPGKERELVAAISSTGSTNYADSLKGRFTISRDNAKNTVYLQMNSLKPEDTAVYYCNTDGGHERAYYYWGQCTQVTVSS | low polyreactivity |
| QVQLVESGGGLVQAGGSLSLSCAASGFIFSYYVMGWYRQAPGKERELVAAINESGGRTYYADSVKGRFTISRDNAKNTVYLQMNSLNPEDTAVYYCAASVLNKIQGYRDYYWGQGTQVTVSS | low polyreactivity |
| QVQLVESGGGLVQAGGSLRLSCAASGRIFYSNTMGWYRQAPGKVRELVAAISRRGGSTYYADSVKGRFTISRDNAKTTVYLQMNSLKPEDTALYYCNTGYSTRLHDYWGQGTQVTVSS | high polyreactivity |
| QVQLVESGGGLVQAGGSLRLSCAASGRTFSSYAMGWYRQAPGKERELVASISKSGGSTSYADSVKGRFTISRDNAKNTVYLQMNSLKPEDTAVYYCNARLDYSTYESSPVTRKRYYWGQGTQVTVSS | low polyreactivity |
| QVQLVESGGGLVQAGGSLRLSCAASGSIFLHNAMGWYRQAPGKDRELVAAISGTGGRTYYADSVKGRFTISRDNAKNTVYLQMNSLKPEDTAVYYCAKAARTRGGYGYWGQGTQVTVSS | high polyreactivity |
| QVQLVESGGGLVQAGGSLRLSCAASGSTFVPNDMGGYRQAPGKERELVAAISYSGGSTYYADSVKGRFTISRDNAKNTVYLQMNSLKPEDTAVYYCAADKYLGELDYWGQGTQVTVSS | low polyreactivity |
| QVQLVETGGGLVQAGGSLRLSCAASGGIFYPNDMGWYRQAPGKEREFVAAITSSSGSTYADSVKGRFTISRDNAKNTVYLQMNSLKPEDTAVYYCATPPDDKGGGYLGYDYWGQGTQVTVSS | low polyreactivity |
| QVQLVESGGGLVQAGGSLRLSCAASGSTIYNNAMGWYRQAPGKERELVAAITRTGGRTYYADSVKGRFTITRDNAKNTVYLQMNSLKREDTAVYYCAATYPSGRDLSFDYWGQGTQVTVSS | high polyreactivity |
| QVQLVESGGGLVQAGGSLRLSCAASGFTFYGYAMGWYRQAPGKERELVASISWSGGTTYYADSVKGRFTISRDNAKNTVYLQMNSLKPEDTAVYYCNAVRYRYGVFPYYYWGQGTQVTVSS | high polyreactivity |
| QVQLVESGGGLVQARGSLRLSCAASGRNFPSNAMGWYRQAPGKERELVPVITRGSRTKYADCVKGRFTISRDKAMNTVYLQMNSLKPEDSAVYYCAALGGLLYTQGHSEAYWGQGTQGTVSS | low polyreactivity |
| QVQIVESGGGLVQAGGSLRLSCAASGFTFVINDMGWYRQAPGKERELVADITSGGDTYYADSVKGRFTISRDNAKNTVYLQMNSLKPEDTAVYYCAADIYPDWIYLLYGYWGQGTQVTVSS | low polyreactivity |
| QVQLVESGGGLVQAGGSLRLSCAASGRIFRTNAMGWYRQAPGKERELVAAITFSGGGTYYADSVKGRFTISRDNAKNTVYLQMNSLKPEDTAVYYCATDWYYEYYYWGQGTQVTVSS | low polyreactivity |
| QVQLVESGGGLVQAGGSLRLSCAASGRIFEEYVMGWYRQAPGKERELVAAISFSGSRTYADSVKGRFTISRDNAKNTVYLQMNSLKPEDTAVYYCAADPSISYDYWGQGTQVTVSS | low polyreactivity |
